Data as given in IntAct's records for PubMed 12860405.

B1: Interleukin-1 receptor-associated kinase 4 (Homo sapiens), Q9NWZ3 (parent)
chain: MNKPITPSTYVRCLNVGLIRKLSDFIDPQEGWKKLAVAIKKPSGDDRYNQFHIRRFEALLQTGKSPTSELLFDWGTTNCTVGDLVDLLIQNEFFAPASLLLPDAVPKTANTLPSKEAITVQQKQMPFCDKDRTLMTPVQNLEQSYMPPDSSSPENKSLEVSDTRFHSFSFYELKNVTNNFDERPISVGGNKMGEGGFGVVYKGYVNNTTVAVKKLAAMVDITTEELKQQFDQEIKVMAKCQHENLVELLGFSSDGDDLCLVYVYMPNGSLLDRLSCLDGTPPLSWHMRCKIAQGAANGINFLHENHHIHRDIKSANILLDEAFTAKISDFGLARASEKFAQTVMTSRIVGTTAYMAPEALRGEITPKSDIYSFGVVLLEIITGLPAVDEHREPQLLLDIKEEIEDEEKTIEDYIDKKMNDADSTSVEAMYSVASQCLHEKKNKRPDIKKVQQLLQEMTAS
partner: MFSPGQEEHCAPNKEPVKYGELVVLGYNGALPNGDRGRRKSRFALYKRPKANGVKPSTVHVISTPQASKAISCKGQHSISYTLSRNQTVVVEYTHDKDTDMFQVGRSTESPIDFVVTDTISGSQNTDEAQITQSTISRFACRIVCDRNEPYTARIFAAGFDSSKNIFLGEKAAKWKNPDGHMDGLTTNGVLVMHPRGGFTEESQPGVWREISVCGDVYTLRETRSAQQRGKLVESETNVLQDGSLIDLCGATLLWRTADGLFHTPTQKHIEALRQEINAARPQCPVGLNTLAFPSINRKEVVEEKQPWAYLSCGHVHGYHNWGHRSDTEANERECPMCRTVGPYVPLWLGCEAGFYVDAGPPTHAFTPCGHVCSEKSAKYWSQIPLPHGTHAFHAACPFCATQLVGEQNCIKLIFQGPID
B2: Interleukin-1 receptor-associated kinase 1 (Homo sapiens), P51617 (parent)
chain: MAGGPGPGEPAAPGAQHFLYEVPPWVMCRFYKVMDALEPADWCQFAALIVRDQTELRLCERSGQRTASVLWPWINRNARVADLVHILTHLQLLRARDIITAWHPPAPLPSPGTTAPRPSSIPAPAEAEAWSPRKLPSSASTFLSPAFPGSQTHSGPELGLVPSPASLWPPPPSPAPSSTKPGPESSVSLLQGARPFPFCWPLCEISRGTHNFSEELKIGEGGFGCVYRAVMRNTVYAVKRLKENADLEWTAVKQSFLTEVEQLSRFRHPNIVDFAGYCAQNGFYCLVYGFLPNGSLEDRLHCQTQACPPLSWPQRLDILLGTARAIQFLHQDSPSLIHGDIKSSNVLLDERLTPKLGDFGLARFSRFAGSSPSQSSMVARTQTVRGTLAYLPEEYIKTGRLAVDTDTFSFGVVVLETLAGQRAVKTHGARTKYLKDLVEEEAEEAGVALRSTQSTLQAGLAADAWAAPIAMQIYKKHLDPRPGPCPPELGLGLGQLACCCLHRRAKRRPPMTQVYERLEKLQAVVAGVPGHSEAASCIPPSPQENSYVSSTGRAHSGAAPWQPLAAPSGASAQAAEQLQRGPNQPVESDESLGGLSAALRSWHLTPSCPLDPAPLREAGCPQGDTAGESSWGSGPGSRPTAVEGLALGSSASSSSEPPQIIINPARQKMVQKLALYEDGALDSLQLLSSSSLPGLGLEQDRQGPEESDEFQS
partner: B1 partner

Variants of: B1
Settings: with peli2_human PELI2, Q9HAT8

| effect of a mutation on the interaction | Variant |
| --- | --- |
| disrupting interaction | K213A |

Variants of: B2
Settings: with peli2_human PELI2, Q9HAT8

| effect of a mutation on the interaction | Variant |
| --- | --- |
| disrupting interaction | K239S |
